{"source": "paper PMC5006017", "target": "syntenin-1 N-terminal wild-type peptide, biotinylated (UniProt O00560)", "test": "SPR; BIAcore 3000; biotinylated syntenin-1 N-terminal peptides immobilised on streptavidin-coupled CM5 chips, ALIX V-domain injected at 20 μl/min; 10 mM HEPES pH 7.4, 150 mM NaCl, 0.005% Surfactant P20; equilibrium analysis, one-site binding model", "data": [{"substance": "ALIX V-domain (ALIX 364-716) (from UniProt Q8WUM4 364-716) (domain or fragment)", "values": [{"measurement": "Kd", "result": 29, "unit": "µM"}]}]}
